Reference: patent US20140017790A1, “CONTROL AGENT FOR CONTROLLING UNDIFFERENTIATED STATE AND USE THEREOF” (RIKEN, priority 2011, published 2014)

Columns and labels:
Format in all cases: cell-based
[1] = tested on: mouse iPS cells; test: quantitative RT-PCR of undifferentiated marker genes, recombinant CCL2 added to mouse iPS cells under feeder free conditions
Procedure: A PrimeScript RT-PCR Kit (trade name, TAKARA BIO INC.), an ABI 7500 Fast real time PCR system (trade name, Applied BioSystems), and a SYBR (registered trademark) Premix Ex Taq (trade name, TAKARA BIO INC.) were used in accordance with their protocols. PCR was carried out by conducting 40 cycles of treatment with a treatment at 94° C. for 5 second and at 62.5° C. for 20 seconds as 1 cycle. The expression level of each gene was calculated by normalizing the relative amount of mRNA in the gene to Gapdh mRNA according to the 2^−ΔΔ^CT method (Thomse R, Solvsten C A, Linnet T E, et al., Analysis of qPCR data by converting exponentially related Ct values into linearly related XO values. J Bioinform Comput Biol 2010: 8: 885-900.).
The medium of a negative control used was the above-described DMEM containing the above-described LIF. […]
Furthermore, after the culture of the mouse iPS cells, the expression level of the Tbx3 gene was determined in the same manner as in the item (1) of Example 1. Then, the fold change in expression level relative to the negative control was calculated. […]
The mouse iPS cells cultured under the feeder free conditions were cultured in the medium of the example and the medium of the comparative example, respectively. […] 24 hours after the culture, the expression levels of the undifferentiated marker genes were determined in the same manner as in the item (1) of Example 1. […]

[2] = tested on: human iPS cells; test: qRT-PCR of undifferentiated marker genes, feeder free versus feeder culture of human iPS cells; conditions: feeder free with CCL2 and LIF, no bFGF, relative to feeder conditions with bFGF
Procedure: Specifically, human iPS cells were cultured under feeder conditions where bFGF was added and the CCL2 was not added, and under feeder free conditions where bFGF was not added and the CCL2 and LIF were added. Total RNAs then were extracted, and the expressions of undifferentiated marker genes were examined by the qRT-PCR. The culture under the feeder conditions was carried out in the same manner as in Example 8. The culture under the feeder free conditions was carried out in the same manner as in Example 12. Then, assuming that the expression level under the feeder condition was 1, the relative value with respect to this value was calculated as the fold change in expression level under the feeder free conditions.
FIG. 21 is a graph showing the fold changes in the expression of the undifferentiated marker genes in the human iPS cells. The vertical axis indicates the fold change (-fold), and the horizontal axis indicates the examined undifferentiated marker genes. The open bars show the results obtained under the feeder free conditions, and the solid bars show the results obtained under the feeder conditions.

[3] = tested on: ERK1/2; test: Western blotting, phosphorylation of ERK1/2 in mouse iPS cells; conditions: CCL2 overexpressed, relative to negative control
Procedure: The mouse iPS cells transfected with the Ccl2 expression vector were cultured for 24 hours in the same manner as in Example 1. After the culture, the mouse iPS cells were washed with PBS, and then were suspended in 100 μl of a mammalian m-PER lysis buffer. The suspension was passed through a 26-gauge needle for 10 minutes to homogenize the cells. Then, the suspension was centrifuged at 13,000 rpm and 4° C. for 5 minutes, and the supernatant was collected. The protein concentration in the supernatant was measured using a Pierce (registered trademark) BCA Protein assay (trade name, Thermo Scientific). Next, the supernatant was subjected to Western blotting to detect a target protein. Specifically, first, the supernatant (total protein: 10 μg) was applied to a Novex Gel electrophoresis system with 4%-12% Bis-Tris gels, and was blotted on a nitrocellulose membrane. Then, the membrane was incubated with a primary antibody against the target protein. After washing the membrane, the membrane was incubated with a labeled secondary antibody labeled with horseradish peroxidase, and a color-developing reaction was caused using a coloring reagent (trade name: ECL plus, GE Healthcare). Then, luminescence on the membrane was detected using a Fuji LAS-3000 luminescent image analyzer. […]

B1: CCL2: mouse recombinant CCL2 (MCP-1, #479-JE-010, R&D Systems); in Examples 1, 3, 4(1), 5 mouse CCL2 (SEQ ID NO: 3) overexpressed from Ccl2 expression vector (protein, listed as Mus musculus)
chain: MQVPVMLLGLLFTVAGWSIHVLAQPDAVNAPLTCCYSFTSKMIPMSRLESYKRITSSRCPKEAVVFVTKLKREVCADPKKEWVQTYIKNLDRNQMRSEPTTLFKTASALRSSAPLNVKLTRKSEANASTTFSTTTSSTSVGVTSVTVN
- expression level of the Tbx3 gene ([1]; recombinant CCL2 500 ng/ml added to PI3K inhibitor 5 ng/ml + LIF 25 units/ml): further increase
- expression of each undifferentiated marker gene ([1]; recombinant CCL2 2500 ng/ml, no LIF, feeder free, 24 hours, relative to LIF 1000 units/ml): increased markedly
- expressions of the undifferentiated marker genes, fold change [2]: comparable
- phosphorylation of ERK1/2 (pERK1/2/ERK1/2) [3]: not promoted
